Test results taken from US20150141617A1, “PRODUCTION AND PURIFICATION OF ACTIVE EUKARYOTIC FORMYLGLYCINEGENERATING ENZYME (FGE) VARIANTS” (Universität Bielefeld, priority 2013, published 2015).

Columns and labels:
[1] = target: FGE-HA (human formylglycine generating enzyme, wild type, C-terminal HA tag, expressed from pBI-FGE-HA in mammalian cells) (human) (UniProt Q8NBK3); assay: cell-based or functional assay
[2] = target: T1, 23 amino acid substrate peptide Ac-MTDFYVPVSLCTPSRAALLTGRS-NH2 (SEQ ID NO: 46)
T1 chain: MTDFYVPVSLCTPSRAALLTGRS

[3] = target: the molecule itself; assay: size exclusion chromatography (Superdex 200), non-reducing SDS-PAGE and western blot with FGE antiserum
Experimental: FIG. 16: Separation of the recombinant fl-FGE-R69A/R72A monomer and dimer by size-exclusion chromatography. (A) The pooled elution fractions from Ni-NTA purification (SM) were further purified in a Superdex (SD200 10/300 GL) column using Ettan LC system (GE health care). The eluted material in 0.5 ml of running buffer (20 mM Tris, pH 8.0 containing 200 mM NaCl) were collected and analyzed in SDS-PAGE under reducing conditions followed by coomassie staining (B) Equal volume of elution fractions obtained as shown in ‘(A)’ were resolved in SDS-PAGE under non-reducing conditions followed by western blot and membrane decorated with FGE anti-serum. (SM: starting material; FGE: monomer; FGE2: dimer).

[4] = target: T2, steroid sulfatase (STS), expressed from pBI-STS in MSDi Tet-On cells (UniProt P08842 22-583, limits assumed); assay: cell-based or functional assay
T2 sequence (looked up): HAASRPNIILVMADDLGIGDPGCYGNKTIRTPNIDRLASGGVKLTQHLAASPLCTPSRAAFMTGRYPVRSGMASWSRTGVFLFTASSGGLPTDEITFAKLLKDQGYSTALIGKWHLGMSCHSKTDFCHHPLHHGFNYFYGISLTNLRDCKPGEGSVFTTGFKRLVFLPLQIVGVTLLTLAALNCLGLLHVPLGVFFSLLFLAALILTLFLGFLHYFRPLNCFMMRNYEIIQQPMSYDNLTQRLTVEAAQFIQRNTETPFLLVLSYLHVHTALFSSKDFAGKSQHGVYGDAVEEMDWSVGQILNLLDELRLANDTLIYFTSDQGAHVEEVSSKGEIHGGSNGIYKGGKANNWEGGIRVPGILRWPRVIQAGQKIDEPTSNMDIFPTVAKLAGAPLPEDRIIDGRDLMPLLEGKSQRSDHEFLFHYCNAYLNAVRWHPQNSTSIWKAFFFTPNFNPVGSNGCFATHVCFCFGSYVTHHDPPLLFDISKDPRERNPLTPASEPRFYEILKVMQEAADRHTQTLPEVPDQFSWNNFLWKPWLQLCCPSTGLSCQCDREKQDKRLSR

[5] = system: 23-aa long substrate peptide Ac-MTDFYVPVSLCTPSRAALLTGRS-NH2; assay: In vitro FGE activity assay (MALDI-ToF MS) with purified recombinant FGE from insect cells; assay type: biochemical
Experimental: a) fl-FGE-R69A/R72A (SEQ ID NO: 4) is active and e.g. generates FGly within a 23-aa long substrate peptide 16 pmol of the 23 amino acid (aa) long peptide Ac-[…]-NH2 (SEQ ID NO:46) were incubated with 12 ng of fl-FGE-R69A/R72A for 20 min at 37° C. under assay conditions (50 mM Tris, 67 mM NaCl, 15 μM CaCl2, 0.33 mg/mL BSA, 2 mM DTT, pH 9.3 in a total volume of 30 μL).
The reaction was stopped by adding 3 μL of 20% trifluoroacetic-acid (TFA), immediately followed by vortexing and by a short centrifugation at 10000×g. The peptide was purified and concentrated by C18-Zip-Tip treatment. Therefore the Zip-Tip was prepared by pipetting three times 10 μL of 50% acetonitrile, 0.05% TFA in water and three times 10 μL 0.1% TFA in water. The 33 μL sample was pipetted 10 times up and down. The bound peptide was washed by pipetting 10 times 10 μL 0.1% TFA in water and was eluted in 10 μL 50% acetonitrile, 0.05% TFA in water by pipetting 10 times up and down. For MS-analysis the following matrix was prepared freshly: 40 μL of a saturated α-cyano-hydroxycinnamic acid solution in aceton were added to 10 μL of a solution containing 10 mg/mL nitrocellulose in 50% Aceton/50% Isopropanol (v/v). 0.5 μL of the matrix were spotted onto a polished steel target and 1 μL of the purified sample was added. The dried sample spot was analyzed by MALDI-ToF mass spectrometry using the Ultra flextreme spectrometer from Bruker Daltronics. The cysteine containing substrate peptide (2526.28 [M+H]^+) and the FGly containing product peptide (2508.29 [M+H]^+) were detected.
b) fl-FGE-R69A/R72A (SEQ ID NO:4) is able to generate FGly by using GSH as reductant:10 times stock solutions of DTT and GSH were prepared in 20 mM Tris pH 9.3. For the reaction, 13 ng of Baculo-fl-FGE were incubated with 16 pmol of the 23 aa-long substrate peptide, 2 mM DTT or 5 mM reduced glutathione for 15 min at 37° C. under assay conditions (50 mM Tris, 67 mM NaCl, 15 μM CaCl2, 0.33 mg/mL BSA, pH 9.3 in a total volume of 30 μL). The reactions were stopped and prepared further for MS-analysis as described above. The ratio of the intensity of the FGly-product peptide divided by the sum of the substrate and product intensities multiplied with 100 yields %-turnover of the substrate peptide. Based on that, specific activities were calculated.
The dependence of FGly-generating activity of recombinant fl-FGE-R69A/R72A on the reducing agents DTT and GSH were analyzed at pH 9.3 under standard assay conditions (FGE and substrate peptide were incubated at 37° C. in 50 mM Tris/HCl, 67 mM NaCl, and 0.33 mg/ml BSA in 30 μl volume. The reaction was started by addition of substrate) using a MALDI-mass spectrometry based in vitro activity assay (Ennemann et al., 2013 and FIG. 7).
The pH-dependence for in vitro activity of recombinant fl-FGE-R69A/R72A and Δ72-FGE-wt was analyzed under optimal DTT and GSH concentrations. Accordingly, the activity of recombinant fl-FGE-R69A/R72A in the presence of 2 mM DTT, under standard assay conditions, was measured in buffers of pH ranging from pH 6.5 to 11.0 (FIG. 19A). […] In the presence of 5 mM GSH, the maximal activity was also observed at pH 9.3 and a very similar activity profile ranging from pH 7.5 to 11 (FIG. 19B). […] In summary, fl-FGE-R69A/R72A requires less alkaline conditions for optimum activity than Δ72-FGE-wt.

[6] = system: cysteine-containing substrate peptide; assay: In vitro FGE activity assay with conditioned media from CHO-FD11 cells; assay type: biochemical; conditions: 5 mM GSH vs 2 mM DTT, pH 9.3, conditioned media
Experimental: FGE activity was assayed using conditioned media that contained either secreted fl-FGE (obtained from CHO-FD FGE-His6 cells) or Δ72-FGE (obtained from CHO-FD Tet-On cells after transient co-transfection with pBI-FGE-HA and pIRES-Furin constructs). After expression for 48 h at 1% or 2.5% FCS containing DMEM, the medium was collected and centrifuged at 500×g for 5 min. The supernatant was analyzed by SDS-PAGE and western blotting and aliquots were directly used for activity testing.
The activity assay was performed in triplicates with three sets of conditioned media at pH 9.3 under standard conditions as described earlier (4) with some modifications; no BSA was added to the reaction mixture and 2 mM DTT or 5 mM GSH were used as reducing agents.
The inventors have recently shown that the N-terminal part of FGE (residues 34-68) is essential to activate sulfatases in vivo (12). By contrast, the N-terminal extension was not required for in vitro FGly-generating activity of purified secreted Δ72-FGE. […] To assess the physiological consequence of the N-terminal truncation by furin on the function of FGE, the inventors analyzed the FGly-generating activity of the processed and the unprocessed forms of secreted FGE in the presence of glutathione (GSH), a physiological reductant, or DTT serving as a control. […]

[7] = Stability of purified recombinant FGE upon storage (SDS-PAGE, Coomassie staining or western blotting); assay type: physicochemical; conditions: thawing from −80° C. and short-term storage at 4° C.
Experimental: Purified enzymes are preferably stored frozen at −20° C. or −80° C., but it is known that the freeze-thaw cycle can lead to a decrease in the stability of proteins and/or accompanied loss of enzymatic activity. To minimize this effect, it is common to add stabilizing agents to preserve the stability and functionality of proteins during long-term storage. Analyses of conditions that affect the stability of purified recombinant fl-FGE-R69A/R72A and Δ72-FGE-wt were performed. The stability was assessed by analyzing the purified protein by SDS-PAGE and subsequently visualized by Coomassie staining or western blotting using FGE anti-serum as described above.
Generation of truncated FGE was increasingly detected upon removing the imidazole by size exclusion chromatography (Panel SEC, FIG. 17A). To gain further insights, aliquots of the purified fraction from size exclusion chromatography were incubated at 4° C. for either 3.5 h or 20 h in the presence of various additives like NaCl, imidazole, arginine and glycerol and later assessed by western blot using FGE anti-serum.

human furin (Gene ID 5045), expressed from a pIRES construct in CHO-FD11 cells (from UniProt P09958 108-794)
share of Δ72-FGE in secretions of CHO-FD11 Tet-On cells co-expressing FGE and the PC (western blot) [1]: 100%

B1: fl-FGE-R69A/R72A (SEQ ID NO: 4), produced in High Five insect cells (enzyme)
chain: ADEFSQEAGTGAGAGSLAGSCGCGTPQRPGAHGSSAAAHAYSAEANAPGPVPGERQLAHSKMVPIPAGVFTMGTDDPQIKQDGEAPARRVTIDAFYMDAYEVSNTEFEKFVNSTGYLTEAEKFGDSFVFEGMLSEQVKTNIQQAVAAAPWWLPVKGANWRHPEGPDSTILHRPDHPVLHVSWNDAVAYCTWAGKRLPTEAEWEYSCRGGLHNRLFPWGNKLQPKGQHYANIWQGEFPVTNTGEDGFQGTAPVDAFPPNGYGLYNIVGNAWEWTSDWWTVHHSVEETLNPKGPPSGKDRVKKGGSYMCHRSYCYRYRCAARSQNTPDSSASNLGFRCAADRLPTMDSGRGSHHHHHHH
notes: It has four extra N-terminal residues (ADEF), human FGE from S34 with R69A and R72A, and a C-terminal SGRGS-His7; After size exclusion it occurs as a monomer and as a disulfide-bridged dimer; also called Baculo-fl-FGE; recombinant fl-FGE-R69A/R72A
specific activity, FGly generation in the 23-aa substrate peptide (MALDI-ToF MS), 2 mM DTT as reductant [2]: 24.1±1.7 mU/mg in presence of the control reductant DTT
specific activity, FGly generation in the 23-aa substrate peptide (MALDI-ToF MS), 5 mM GSH as reductant [2]: 15.6±1.3 mU/mg in presence of GSH
binding result [3]: binds

B2: FGE-HA (human formylglycine generating enzyme, wild type, C-terminal HA tag, expressed from pBI-FGE-HA in mammalian cells) (enzyme, UniProt Q8NBK3 34-374, looked up, not shown: small tags and cut ends)
chain: SQEAGTGAGAGSLAGSCGCGTPQRPGAHGSSAAAHRYSREANAPGPVPGERQLAHSKMVPIPAGVFTMGTDDPQIKQDGEAPARRVTIDAFYMDAYEVSNTEFEKFVNSTGYLTEAEKFGDSFVFEGMLSEQVKTNIQQAVAAAPWWLPVKGANWRHPEGPDSTILHRPDHPVLHVSWNDAVAYCTWAGKRLPTEAEWEYSCRGGLHNRLFPWGNKLQPKGQHYANIWQGEFPVTNTGEDGFQGTAPVDAFPPNGYGLYNIVGNAWEWTSDWWTVHHSVEETLNPKGPPSGKDRVKKGGSYMCHRSYCYRYRCAARSQNTPDSSASNLGFRCAADRLPTMD
relative specific activity of STS after co-expression in immortalized MSD Tet-On cells [4]: ~50 fold

B3: Δ72-FGE: human FGE that lacks the N-terminal domain (amino acid residues 1-72), SEQ ID NO:6 (protein)
chain: ADLGSSMEFEANAPGPVPGERQLAHSKMVPIPAGVFTMGTDDPQIKQDGEAPARRVTIDAFYMDAYEVSNTEFEKFVNSTGYLTEAEKFGDSFVFEGMLSEQVKTNIQQAVAAAPWWLPVKGANWRHPEGPDSTILHRPDHPVLHVSWNDAVAYCTWAGKRLPTEAEWEYSCRGGLHNRLFPWGNKLQPKGQHYANIWQGEFPVTNTGEDGFQGTAPVDAFPPNGYGLYNIVGNAWEWTSDWWTVHHSVEETLNPKGPPSGKDRVKKGGSYMCHRSYCYRYRCAARSQNTPDSSASNLGFRCAADRLPTMDSGRGSHHHHHHH
modifications: cleaved FGE in position 72 , inacitve FGE
pH of maximal activity ([5]; 2 mM DTT, MTGC buffer pH 6.5-11.0): ~10
FGly generation in substrate peptide in presence of DTT ([5]; 2 mM DTT, pH 9.3, 37° C.): converts the cysteine-containing substrate peptide to the FGly-containing product peptide
dependence of activity on reducing agent (DTT or GSH) ([5]; in vitro, pH 9.3): strictly relies on DTT
specific activity ([5]; purified from Baculovirus expression system (Example 7)): 70-90 mU/mg
FGly-generating activity (% substrate turnover) in the presence of GSH normalized to that of DTT (100%) [6]: barely active in the presence of GSH
molecular integrity after storage [7]: did not lead to any change in the molecular integrity
